Experimental data as given in the supplement of paper PMC9233669.
Fewer inactive variants are shown than the library holds.

Tests used:
biotinyl-Phe-oxazolone = experiment: self-aminoacylation, catalytic enhancement (BFO) (fold over background); higher = more active; k-Seq, kA / k0A0; sequences stand for … in GGGAAUGGAUCCACAUCUACGAAUUC…UUCACUGCAGACUUGACGAAGCUG
Outline: (§1)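 Working in 50 μL HEPES/NaCl/KCl/MgCl2/CaCl2 buffer with 5% acetonitrile at pH 6.9–7.0, mutagenized RNA pools (0.43 μM; 21-nt variable region) were reacted with 2–1250 μM of each biotinyl-aminoacyl-oxazolone for 90 minutes at room temperature. Streptavidin capture followed, with quantification by triplicate qPCR and Illumina sequencing. Catalytic enhancement is reported as median kA over the uncatalyzed rate, the low-activity peak of a bimodal Gaussian fit to the data.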

biotinyl-Ile-oxazolone = experiment: self-aminoacylation, catalytic enhancement (BIO) (fold over background); higher = more active; k-Seq, kA / k0A0; sequences stand for … in GGGAAUGGAUCCACAUCUACGAAUUC…UUCACUGCAGACUUGACGAAGCUG
Outline: as §1

biotinyl-Met-oxazolone = experiment: self-aminoacylation, catalytic enhancement (BMO) (fold over background); higher = more active; k-Seq, kA / k0A0; sequences stand for … in GGGAAUGGAUCCACAUCUACGAAUUC…UUCACUGCAGACUUGACGAAGCUG
Outline: as §1

biotinyl-Val-oxazolone = experiment: self-aminoacylation, catalytic enhancement (BVO) (fold over background); higher = more active; k-Seq, kA / k0A0; sequences stand for … in GGGAAUGGAUCCACAUCUACGAAUUC…UUCACUGCAGACUUGACGAAGCUG
Outline: as §1

biotinyl-Leu-oxazolone = experiment: self-aminoacylation, catalytic enhancement (BLO) (fold over background); higher = more active; k-Seq, kA / k0A0; sequences stand for … in GGGAAUGGAUCCACAUCUACGAAUUC…UUCACUGCAGACUUGACGAAGCUG
Outline: as §1

biotinyl-Trp-oxazolone = experiment: self-aminoacylation, catalytic enhancement (BWO) (fold over background); higher = more active; k-Seq, kA / k0A0; sequences stand for … in GGGAAUGGAUCCACAUCUACGAAUUC…UUCACUGCAGACUUGACGAAGCUG
Outline: as §1

| Sequence | self-aminoacylation (biotinyl-Phe-oxazolone) | self-aminoacylation (biotinyl-Ile-oxazolone) | self-aminoacylation (biotinyl-Met-oxazolone) | self-aminoacylation (biotinyl-Val-oxazolone) | self-aminoacylation (biotinyl-Leu-oxazolone) | self-aminoacylation (biotinyl-Trp-oxazolone) |
| --- | --- | --- | --- | --- | --- | --- |
| CUACUUCGAGCAAUCGGUCUG [Fam1A.1 aminoacylation ribozyme variant] | 0.728 | 0.951 | 1.15 | 1.01 | 0.815 | 0.703 |
| CCACACUUCUAGCAAUCAGUC [Fam1B.1 aminoacylation ribozyme variant] | 1.14 | 0.797 | 0.648 | 0.721 | 0.622 | 0.459 |
| AUUCAUCUAGGUCAUCGGGUC [Fam2.2 aminoacylation ribozyme variant] | 2.17 | 1.07 | 1.21 | 1.28 | 1.22 | 1.02 |
| AAGUUUGCUAAUACUGGCAAG [Fam3.1 aminoacylation ribozyme variant] | 0.739 | 0.642 | 0.481 | 0.571 | 0.696 | 0.458 |
| CUGCUUCAAACAAUUGGUCUG [Fam1A.1 aminoacylation ribozyme variant] | 1.54 | 0.789 | 0.715 | 0.657 | 0.726 | 1.19 |
| AAGUUUGCUAAUAGACGCGAG [Fam3.1 aminoacylation ribozyme variant] | 0.443 | 0.793 | 0.912 | 0.64 | 0.619 | 0.812 |
| UUUACCCUGGUGAUCGAGUGA [Fam2.1 aminoacylation ribozyme variant] | 28.6 | 3.39 | 6.47 | 3.51 | 6.55 | 7.87 |
| CUACACUUCAAACAAUCGGUC [Fam1B.1 aminoacylation ribozyme variant] | 88.2 | 1.22 | 1.34 | 1.27 | 2.08 | 39 |
| CUACUUCGAACACUCGGUCUG [Fam1A.1 aminoacylation ribozyme variant] | 3.18 | 1.02 | 1.04 | 1.18 | 1.32 | 1 |
| GUUCACCGAGGUCAUCGGGUG [Fam2.2 aminoacylation ribozyme variant] | 55.9 | 4.56 | 6.57 | 4.56 | 8.58 | 7.43 |
| AUGUUUGCUAAUAGUCGCACG [Fam3.1 aminoacylation ribozyme variant] | 1.24 | 1.15 | 1.02 | 0.981 | 1.13 | 0.741 |
| AUUUACCUAGAUCAUCGGGUG [Fam2.2 aminoacylation ribozyme variant] | 12.3 | 2.17 | 2.35 | 1.88 | 3 | 3.38 |
| CCAUACUUCAAGAAAUCGGUC [Fam1B.1 aminoacylation ribozyme variant] | 5.18 | 0.907 | 0.777 | 0.787 | 0.87 | 4.39 |
| CUACUUCAGACAAUCGAUCUG [Fam1A.1 aminoacylation ribozyme variant] | 0.994 | 0.669 | 0.542 | 0.634 | 0.477 | 0.493 |
| AUCCACCUAAGUCAUCGGGUG [Fam2.2 aminoacylation ribozyme variant] | 90.6 | 6.14 | 11.3 | 7.25 | 14.4 | 9.42 |
| AAGUUUGCGAAUAGUCGCAAC [Fam3.1 aminoacylation ribozyme variant] | 7.2 | 1.66 | 1.33 | 1.4 | 1.32 | 1.46 |
| CAACACUUCAAGCAAGCGGUC [Fam1B.1 aminoacylation ribozyme variant] | 0.831 | 1.1 | 1.24 | 0.953 | 1.25 | 0.593 |
| AUUCACCUAGGGCAUCGGAUG [Fam2.2 aminoacylation ribozyme variant] | 0.411 | 0.923 | 0.506 | 0.873 | 0.894 | 0.646 |
| AUUCACCUCGGUCAUCGGGAG [Fam2.2 aminoacylation ribozyme variant] | 0.478 | 1.02 | 1.39 | 1.22 | 1.63 | 1.17 |
| AUUCACCUAGGACAUGGGGUG [Fam2.2 aminoacylation ribozyme variant] | 42.9 | 3.4 | 5.06 | 3.42 | 7.25 | 5.18 |
| AUUCACGUAGGUCAUCGGGUA [Fam2.2 aminoacylation ribozyme variant] | 21 | 2.9 | 3.16 | 3.72 | 2.95 | 3.66 |
| CCACACUUCAUGCAAUCGGGC [Fam1B.1 aminoacylation ribozyme variant] | 0.961 | 1.86 | 1.25 | 1.84 | 1.38 | 1.77 |
| UUACUUCAAAGAAUCGGUCUG [Fam1A.1 aminoacylation ribozyme variant] | 2.71 | 1.34 | 1.24 | 1.08 | 1.57 | 2.03 |
| AUUACCCUGCUCAUCGCGUGA [Fam2.1 aminoacylation ribozyme variant] | 152 | 7.11 | 17.1 | 7.29 | 16.4 | 16.9 |
| UUUCACCUAGGUCAGCGGGUG [Fam2.2 aminoacylation ribozyme variant] | 24.2 | 3.75 | 4.92 | 3.92 | 5.53 | 5.12 |
| AUGACCCGGGUCAUCGAGUGA [Fam2.1 aminoacylation ribozyme variant] | 46.3 | 3.9 | 6.73 | 3.55 | 7.47 | 6.53 |

| Sequence | self-aminoacylation (biotinyl-Phe-oxazolone) | self-aminoacylation (biotinyl-Ile-oxazolone) | self-aminoacylation (biotinyl-Met-oxazolone) | self-aminoacylation (biotinyl-Val-oxazolone) | self-aminoacylation (biotinyl-Leu-oxazolone) | self-aminoacylation (biotinyl-Trp-oxazolone) |
| --- | --- | --- | --- | --- | --- | --- |
| CCACACUUUAAGGAAUCGGUC [Fam1B.1 aminoacylation ribozyme variant] | 0.557 | 0.862 | 0.717 | 0.826 | 0.725 | 0.644 |
| AUUCACCUAGAACAUCGGGUG [Fam2.2 aminoacylation ribozyme variant] | 16.8 | 2.39 | 2.73 | 2.47 | 2.88 | 3.56 |
| CCACACUGCAUGCAAUCGGUC [Fam1B.1 aminoacylation ribozyme variant] | 0.714 | 0.875 | 0.803 | 0.857 | 0.507 | 0.659 |
| AUUACCCAGGUAAUCGAGUGA [Fam2.1 aminoacylation ribozyme variant] | 44.6 | 3.26 | 7.57 | 3.56 | 8.05 | 9.28 |
| CUACUUCUAACAAUCGGUCUU [Fam1A.1 aminoacylation ribozyme variant] | 0.801 | 0.748 | 0.701 | 0.871 | 0.753 | 0.465 |
| AAGUUUGCUAAUAGUCGUAAC [Fam3.1 aminoacylation ribozyme variant] | 1.02 | 0.726 | 0.658 | 0.822 | 0.68 | 0.778 |
| AUUCACCUAGGUCGUCGGAUG [Fam2.2 aminoacylation ribozyme variant] | 0.37 | 0.909 | 0.982 | 1.12 | 0.929 | 0.507 |
| AAGUUUGCUAAUAGUCACUAG [Fam3.1 aminoacylation ribozyme variant] | 1.1 | 1.08 | 0.981 | 0.939 | 0.836 | 1.13 |
| AUUCACCUAUGACAUCGGGUG [Fam2.2 aminoacylation ribozyme variant] | 22.3 | 2.25 | 3.24 | 1.73 | 3.63 | 3.44 |
| UUGUUUGCUAAUAGUCGCAAG [Fam3.1 aminoacylation ribozyme variant] | 9.39 | 1.41 | 1.33 | 1.42 | 1.24 | 3.52 |
| ACUCACCUAGGUCAUCGGAUG [Fam2.2 aminoacylation ribozyme variant] | 0.718 | 1.13 | 0.912 | 1.02 | 0.812 | 1.48 |
| AUUGCUCUGGUCAUCGAGUGA [Fam2.1 aminoacylation ribozyme variant] | 6.13 | 3.33 | 6.02 | 3.3 | 5.71 | 6.59 |
| AUUACCCUGGUGGUCGAGUGA [Fam2.1 aminoacylation ribozyme variant] | 12.8 | 1.47 | 2.28 | 1.61 | 1.95 | 1.83 |
| AAGUUAGCUAAUAGUCGCAAA [Fam3.1 aminoacylation ribozyme variant] | 2.51 | 2.01 | 1.47 | 1.39 | 1.64 | 1.06 |
| CUACUUCUAACAAUCGAUCUG [Fam1A.1 aminoacylation ribozyme variant] | 0.698 | 0.674 | 0.522 | 0.67 | 0.509 | 0.416 |
| GUACUUCAAACAAUCGGUCUC [Fam1A.1 aminoacylation ribozyme variant] | 39.5 | 1.5 | 1.65 | 1.4 | 2.06 | 26.5 |
| CCACACUUGACGCAAUCGGUC [Fam1B.1 aminoacylation ribozyme variant] | 1.18 | 1.4 | 1.44 | 1.43 | 1.21 | 1.54 |
| CUAGUUCAAACAAUCGGCCUG [Fam1A.1 aminoacylation ribozyme variant] | 12.4 | 1.71 | 1.76 | 1.84 | 2.2 | 11.2 |
| AUUCGCCUAGAUCAUCGGGUG [Fam2.2 aminoacylation ribozyme variant] | 19.1 | 2.08 | 2.69 | 2.27 | 4.04 | 3.12 |
| CCACACUUUAAGCAAUCGUUC [Fam1B.1 aminoacylation ribozyme variant] | 0.911 | 0.669 | 0.566 | 0.849 | 0.543 | 0.575 |
| CUUACCCCGGUCAUCGAGUGA [Fam2.1 aminoacylation ribozyme variant] | 19.8 | 3.44 | 6.51 | 3.92 | 6.2 | 6.76 |
| AUUACCGUAGUCAUCGAGUGA [Fam2.1 aminoacylation ribozyme variant] | 26 | 2.94 | 4.79 | 3.22 | 5.83 | 7.23 |
| CUACACUUCAAGCAAUAGGUC [Fam1B.1 aminoacylation ribozyme variant] | 1.06 | 0.542 | 0.44 | 0.585 | 0.527 | 0.506 |
| CUACUUCAAGCAAUCGCUCUG [Fam1A.1 aminoacylation ribozyme variant] | 1.13 | 0.99 | 1.07 | 0.943 | 1.28 | 1.17 |
| CUACUUCAAAAUAUCGGUCUG [Fam1A.1 aminoacylation ribozyme variant] | 1.01 | 1.01 | 0.936 | 0.911 | 0.798 | 0.973 |
